Measurements: the MegaScale stability set (Tsuboyama et al. 2023)

B1: r4_43_TrROS_Hall (parent)
chain: DLVTIKVPLENLEEIKKAAEKAGFKIVSISYDKENKEVTIVIEKKK

Variants of: B1
Test: folding stability dG (cDNA display proteolysis); higher = more stable
Conditions: PBS, room temperature

With DLVTIKYPLENLEEIKKAAEKAGFKIVSISYDKENKEVTIVIEKKK [V7Y] as the variant, how does the “folding stability dG” value read?
The value was 3.24 kcal/mol.

For DLVTIKVPLENLGEIKKAAEKAGFKIVSISYDKENKEVTIVIEKKK [E13G], which “folding stability dG” value is on record?
Its value is 3.63 kcal/mol.

Which “folding stability dG” value does the source give for DLVTIKVPLENLKEIKKAAEKAGFKIVSISYDKENKEVTIVIEKKK [E13K] here?
Its value is 3.62 kcal/mol.

For DLVTIKVPLENLVEIKKAAEKAGFKIVSISYDKENKEVTIVIEKKK [E13V], which “folding stability dG” value is on record?
Its value is 3.61 kcal/mol.

For DLVTIKVPLENLQEIKKAAEKAGFKIVSISYDKENKEVTIVIEKKK [E13Q], which “folding stability dG” value is on record?
The value was 3.6 kcal/mol.

Which “folding stability dG” value does the source give for DLVTIKVPLENLCEIKKAAEKAGFKIVSISYDKENKEVTIVIEKKK [E13C] here?
Its value is 3.74 kcal/mol.

Which “folding stability dG” value does the source give for DLVTIKVPLENLNEIKKAAEKAGFKIVSISYDKENKEVTIVIEKKK [E13N] here?
The value was 3.6 kcal/mol.

With DLVTIKVPLENLPEIKKAAEKAGFKIVSISYDKENKEVTIVIEKKK [E13P] as the variant, how does the “folding stability dG” value read?
The value was 3.52 kcal/mol.

For DLVTIKVPLENLIEIKKAAEKAGFKIVSISYDKENKEVTIVIEKKK [E13I], which “folding stability dG” value is on record?
Its value is 3.69 kcal/mol.

Which “folding stability dG” value does the source give for DLVTIKVPLENLLEIKKAAEKAGFKIVSISYDKENKEVTIVIEKKK [E13L] here?
The value was 3.9 kcal/mol.

With DLVTIKVPLENLWEIKKAAEKAGFKIVSISYDKENKEVTIVIEKKK [E13W] as the variant, how does the “folding stability dG” value read?
The value was 4.08 kcal/mol.

For DLVTIKVPLENLFEIKKAAEKAGFKIVSISYDKENKEVTIVIEKKK [E13F], which “folding stability dG” value is on record?
Its value is 3.99 kcal/mol.

With DLVTIKVPLENLHEIKKAAEKAGFKIVSISYDKENKEVTIVIEKKK [E13H] as the variant, how does the “folding stability dG” value read?
Its value is 3.55 kcal/mol.

With DLVTIKVPLENLTEIKKAAEKAGFKIVSISYDKENKEVTIVIEKKK [E13T] as the variant, how does the “folding stability dG” value read?
The value was 3.46 kcal/mol.

For DLVTIKVPLENLMEIKKAAEKAGFKIVSISYDKENKEVTIVIEKKK [E13M], which “folding stability dG” value is on record?
Its value is 3.68 kcal/mol.

With DLVTIKVPLENLAEIKKAAEKAGFKIVSISYDKENKEVTIVIEKKK [E13A] as the variant, how does the “folding stability dG” value read?
Its value is 3.28 kcal/mol.

Which “folding stability dG” value does the source give for DLVTIKVPLENLDEIKKAAEKAGFKIVSISYDKENKEVTIVIEKKK [E13D] here?
The value was 3.64 kcal/mol.

Which “folding stability dG” value does the source give for DLVTIKVPLENLREIKKAAEKAGFKIVSISYDKENKEVTIVIEKKK [E13R] here?
Its value is 3.2 kcal/mol.

Which “folding stability dG” value does the source give for DLVTIKVPLENLSEIKKAAEKAGFKIVSISYDKENKEVTIVIEKKK [E13S] here?
The value was 3.54 kcal/mol.

For DLVTIKVPLENWEEIKKAAEKAGFKIVSISYDKENKEVTIVIEKKK [L12W], which “folding stability dG” value is on record?
Its value is 3.67 kcal/mol.

Which “folding stability dG” value does the source give for DLVTIKVPLENVEEIKKAAEKAGFKIVSISYDKENKEVTIVIEKKK [L12V] here?
The value was 3.56 kcal/mol.

With DLVTIKVPLENGEEIKKAAEKAGFKIVSISYDKENKEVTIVIEKKK [L12G] as the variant, how does the “folding stability dG” value read?
The value was 3.16 kcal/mol.

For DLVTIKVPLENAEEIKKAAEKAGFKIVSISYDKENKEVTIVIEKKK [L12A], which “folding stability dG” value is on record?
Its value is 3.63 kcal/mol.

Which “folding stability dG” value does the source give for DLVTIKVPLENFEEIKKAAEKAGFKIVSISYDKENKEVTIVIEKKK [L12F] here?
Its value is 3.75 kcal/mol.

With DLVTIKVPLENNEEIKKAAEKAGFKIVSISYDKENKEVTIVIEKKK [L12N] as the variant, how does the “folding stability dG” value read?
Its value is 2.46 kcal/mol.

For DLVTIKVPLENDEEIKKAAEKAGFKIVSISYDKENKEVTIVIEKKK [L12D], which “folding stability dG” value is on record?
The value was 2.46 kcal/mol.

For DLVTIKVPLENSEEIKKAAEKAGFKIVSISYDKENKEVTIVIEKKK [L12S], which “folding stability dG” value is on record?
The value was 3.38 kcal/mol.

For DLVTIKVPLENQEEIKKAAEKAGFKIVSISYDKENKEVTIVIEKKK [L12Q], which “folding stability dG” value is on record?
The value was 3.25 kcal/mol.

For DLVTIKVPLENKEEIKKAAEKAGFKIVSISYDKENKEVTIVIEKKK [L12K], which “folding stability dG” value is on record?
The value was 3.03 kcal/mol.

Which “folding stability dG” value does the source give for DLVTIKVPLENHEEIKKAAEKAGFKIVSISYDKENKEVTIVIEKKK [L12H] here?
The value was 3.41 kcal/mol.

For DLVTIKVPLENTEEIKKAAEKAGFKIVSISYDKENKEVTIVIEKKK [L12T], which “folding stability dG” value is on record?
The value was 3.23 kcal/mol.

With DLVTIKVPLENREEIKKAAEKAGFKIVSISYDKENKEVTIVIEKKK [L12R] as the variant, how does the “folding stability dG” value read?
Its value is 2.8 kcal/mol.

For DLVTIKVPLENMEEIKKAAEKAGFKIVSISYDKENKEVTIVIEKKK [L12M], which “folding stability dG” value is on record?
The value was 3.77 kcal/mol.

Which “folding stability dG” value does the source give for DLVTIKVPLENIEEIKKAAEKAGFKIVSISYDKENKEVTIVIEKKK [L12I] here?
Its value is 3.73 kcal/mol.

With DLVTIKVPLENPEEIKKAAEKAGFKIVSISYDKENKEVTIVIEKKK [L12P] as the variant, how does the “folding stability dG” value read?
Its value is 1.92 kcal/mol.

Which “folding stability dG” value does the source give for DLVTIKVPLENYEEIKKAAEKAGFKIVSISYDKENKEVTIVIEKKK [L12Y] here?
The value was 3.64 kcal/mol.

Which “folding stability dG” value does the source give for DLVTIKVPLENEEEIKKAAEKAGFKIVSISYDKENKEVTIVIEKKK [L12E] here?
Its value is 3.55 kcal/mol.

For DLVTIKVPLEWLEEIKKAAEKAGFKIVSISYDKENKEVTIVIEKKK [N11W], which “folding stability dG” value is on record?
Its value is 3.63 kcal/mol.

With DLVTIKVPLELLEEIKKAAEKAGFKIVSISYDKENKEVTIVIEKKK [N11L] as the variant, how does the “folding stability dG” value read?
Its value is 3.67 kcal/mol.

With DLVTIKVPLEVLEEIKKAAEKAGFKIVSISYDKENKEVTIVIEKKK [N11V] as the variant, how does the “folding stability dG” value read?
The value was 3.87 kcal/mol.

Which “folding stability dG” value does the source give for DLVTIKVPLESLEEIKKAAEKAGFKIVSISYDKENKEVTIVIEKKK [N11S] here?
The value was 3.42 kcal/mol.

For DLVTIKVPLETLEEIKKAAEKAGFKIVSISYDKENKEVTIVIEKKK [N11T], which “folding stability dG” value is on record?
Its value is 3.59 kcal/mol.

Which “folding stability dG” value does the source give for DLVTIKVPLEQLEEIKKAAEKAGFKIVSISYDKENKEVTIVIEKKK [N11Q] here?
Its value is 3.76 kcal/mol.

For DLVTIKVPLEHLEEIKKAAEKAGFKIVSISYDKENKEVTIVIEKKK [N11H], which “folding stability dG” value is on record?
The value was 3.83 kcal/mol.

Which “folding stability dG” value does the source give for DLVTIKVPLEPLEEIKKAAEKAGFKIVSISYDKENKEVTIVIEKKK [N11P] here?
The value was 2.5 kcal/mol.

Which “folding stability dG” value does the source give for DLVTIKVPLEILEEIKKAAEKAGFKIVSISYDKENKEVTIVIEKKK [N11I] here?
The value was 3.73 kcal/mol.

Which “folding stability dG” value does the source give for DLVTIKVPLEELEEIKKAAEKAGFKIVSISYDKENKEVTIVIEKKK [N11E] here?
The value was 3.27 kcal/mol.

For DLVTIKVPLEGLEEIKKAAEKAGFKIVSISYDKENKEVTIVIEKKK [N11G], which “folding stability dG” value is on record?
Its value is 3.34 kcal/mol.

For DLVTIKVPLEYLEEIKKAAEKAGFKIVSISYDKENKEVTIVIEKKK [N11Y], which “folding stability dG” value is on record?
Its value is 4.11 kcal/mol.

With DLVTIKVPLEFLEEIKKAAEKAGFKIVSISYDKENKEVTIVIEKKK [N11F] as the variant, how does the “folding stability dG” value read?
The value was 3.59 kcal/mol.

For DLVTIKVPLEKLEEIKKAAEKAGFKIVSISYDKENKEVTIVIEKKK [N11K], which “folding stability dG” value is on record?
Its value is 3.65 kcal/mol.

With DLVTIKVPLEMLEEIKKAAEKAGFKIVSISYDKENKEVTIVIEKKK [N11M] as the variant, how does the “folding stability dG” value read?
The value was 3.51 kcal/mol.

Which “folding stability dG” value does the source give for DLVTIKVPLEDLEEIKKAAEKAGFKIVSISYDKENKEVTIVIEKKK [N11D] here?
The value was 3.4 kcal/mol.

For DLVTIKVPLECLEEIKKAAEKAGFKIVSISYDKENKEVTIVIEKKK [N11C], which “folding stability dG” value is on record?
Its value is 3 kcal/mol.

With DLVTIKVPLERLEEIKKAAEKAGFKIVSISYDKENKEVTIVIEKKK [N11R] as the variant, how does the “folding stability dG” value read?
Its value is 4.15 kcal/mol.

For DLVTIKVPLEALEEIKKAAEKAGFKIVSISYDKENKEVTIVIEKKK [N11A], which “folding stability dG” value is on record?
Its value is 3.83 kcal/mol.
